{"source": "patent US20250177546A1", "about": "(SANYOU BIOPHARMACEUTICALS, published 2025)", "key": {"[1]": {"biological_target": "T1, huROR1-His (human ROR1 ECD AA30-406 with C-terminal His tag, made in house) (human, UniProt Q01973 30-406)", "T1 construct": "range 30-406; Expressed in HEK293; also called antigen protein huROR1-His; not shown: C-terminal His tag", "T1 sequence (Q01973 30-406 limits assumed)": "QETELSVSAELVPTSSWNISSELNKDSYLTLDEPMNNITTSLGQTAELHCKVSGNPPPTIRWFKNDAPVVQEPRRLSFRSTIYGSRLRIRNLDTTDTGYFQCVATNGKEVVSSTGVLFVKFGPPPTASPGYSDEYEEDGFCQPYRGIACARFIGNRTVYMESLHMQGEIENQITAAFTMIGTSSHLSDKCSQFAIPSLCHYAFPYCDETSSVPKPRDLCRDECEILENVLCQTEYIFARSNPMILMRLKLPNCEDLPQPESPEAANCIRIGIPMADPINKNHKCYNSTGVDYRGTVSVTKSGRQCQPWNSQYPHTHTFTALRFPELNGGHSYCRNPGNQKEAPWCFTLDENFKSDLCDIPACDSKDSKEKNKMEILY", "assay": "ELISA, huROR1-His coated plate, goat anti-human Fc-HRP, OD450"}, "[2]": {"biological_target": "T1, huROR1-His (human ROR1 ECD AA30-406 …)", "assay": "ELISA, huROR1-His coated plate, goat anti-human Fc-HRP, OD450", "remark": "listed apart in the source"}, "[3]": {"biological_target": "T2, human ROR1 on cells (full-length human ROR1 on huROR1-HEK293 cells; human ROR1 on A549 and HT-29 tumor cells) (human, UniProt Q01973 30-937)", "T2 construct": "whole, on cells; also called hROR1-HEK293T; A549 tumor cells", "T2 sequence (Q01973 30-937)": "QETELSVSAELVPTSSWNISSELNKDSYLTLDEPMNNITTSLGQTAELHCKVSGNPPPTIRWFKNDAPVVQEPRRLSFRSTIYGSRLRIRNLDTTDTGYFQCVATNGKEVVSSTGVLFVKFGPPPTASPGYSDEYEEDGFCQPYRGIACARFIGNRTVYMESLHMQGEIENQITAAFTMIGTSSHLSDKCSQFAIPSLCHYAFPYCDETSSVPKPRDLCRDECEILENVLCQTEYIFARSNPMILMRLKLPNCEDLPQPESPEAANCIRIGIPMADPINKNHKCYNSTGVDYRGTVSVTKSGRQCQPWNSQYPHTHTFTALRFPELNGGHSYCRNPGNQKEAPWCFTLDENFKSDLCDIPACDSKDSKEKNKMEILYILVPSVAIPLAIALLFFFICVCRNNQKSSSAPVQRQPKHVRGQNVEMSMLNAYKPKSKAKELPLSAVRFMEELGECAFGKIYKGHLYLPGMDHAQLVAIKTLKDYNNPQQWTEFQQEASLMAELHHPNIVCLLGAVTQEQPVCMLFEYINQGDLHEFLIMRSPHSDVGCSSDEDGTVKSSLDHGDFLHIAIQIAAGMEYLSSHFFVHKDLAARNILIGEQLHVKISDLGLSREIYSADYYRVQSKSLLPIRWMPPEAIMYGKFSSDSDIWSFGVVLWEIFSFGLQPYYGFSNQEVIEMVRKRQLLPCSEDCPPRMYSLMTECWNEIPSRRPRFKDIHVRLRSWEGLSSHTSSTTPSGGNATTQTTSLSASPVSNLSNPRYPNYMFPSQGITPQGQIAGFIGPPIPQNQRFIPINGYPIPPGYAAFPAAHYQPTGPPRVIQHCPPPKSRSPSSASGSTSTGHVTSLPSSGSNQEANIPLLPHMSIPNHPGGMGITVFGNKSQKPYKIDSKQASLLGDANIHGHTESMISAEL", "assay": "flow cytometry (FACS) on A549 tumor cells, anti-human IgG-Fc secondary antibody, MFI", "description": "(§1) In this example, the binding activity of the antibody was evaluated using two types of cells, huROR1-HEK293 cells over-expressing human ROR1 and A549 tumor cells.\n(§2) The specific method was as follows: huROR1-HEK293 cells or A549 cells in the logarithmic growth phase were prepared to a single-cell suspension, the density was adjusted to 1×10⁶ cells/mL, then 100 μL/well cells were added to a 96-well round-bottom plate, centrifuged at 4° C., 300 g, and the supernatant was removed. […] After the incubation, the cell mixture was washed three times and then 100 μL of 1:300 diluted secondary antibody Goat F(ab′)₂ Anti-Human IgG-Fc (abcam, ab98596) was added. The mixture was incubated at 4° C. in the dark for 30 min. After washing three times, the cells were detected by flow cytometry (Beckman, CytoFLEX AOO-1-1102)."}, "[4]": {"biological_target": "T1, huROR1-His (human ROR1 ECD AA30-406 …)", "assay": "Gator (BLI) Advanced Kinetics; antibody 30 nM, huROR1-His 480-7.5 nM", "description": "First, Q buffer was prepared with PBS (10 mM pH7.4) (IgG-free, purchased from Jackson ImmunoResearch Lab)+0.02% Tween 20 (purchased from thermo)+0.2% BSA (purchased from source culture), and the stock solution of the test antibody was diluted with the prepared Q buffer to a working solution with a final concentration of 30 nM, the stock solution of the antigen protein huROR1-His was prepared with Q buffer into a working solution with multiple dilutions (480, 240, 120, 60, 30, 15, 7.5 nM), and detection and analysis was then performed with Gator instrument and its accompanying software, selecting the Advanced Kinetics experimental mode is used."}, "[5]": {"biological_target": "T3, huROR2-His (human ROR2 ECD AA34-403 with C-terminal His tag) (human, UniProt Q01974 34-403)", "T3 construct": "range 34-403; Expressed in HEK293; also called human ROR2 antigen protein; not shown: C-terminal His tag", "T3 sequence (Q01974 34-403 limits assumed)": "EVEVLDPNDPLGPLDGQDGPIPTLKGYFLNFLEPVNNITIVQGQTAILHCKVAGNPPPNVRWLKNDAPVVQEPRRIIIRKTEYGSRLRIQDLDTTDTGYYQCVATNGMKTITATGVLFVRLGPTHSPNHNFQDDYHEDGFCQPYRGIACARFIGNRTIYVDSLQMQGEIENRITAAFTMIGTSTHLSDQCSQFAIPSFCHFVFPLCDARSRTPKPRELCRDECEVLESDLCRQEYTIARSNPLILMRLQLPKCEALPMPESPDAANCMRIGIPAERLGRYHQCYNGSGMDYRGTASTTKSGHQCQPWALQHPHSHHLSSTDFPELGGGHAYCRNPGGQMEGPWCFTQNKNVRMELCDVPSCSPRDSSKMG", "assay": "ELISA, huROR2-His coated at 2 µg/mL, goat anti-human Fc-HRP, OD450", "description": "(§3) 96-well ELISA plate was coated with 2 μg/mL huROR2-His (30 μL/well) at 4° C. overnight. The next day, the plate was washed three times with PBST and then blocked with 5% skim milk for 2 h. […] After washing with PBST for three times, the secondary antibody Goat-anti-human Fc-HRP (abcam, ab97225) was added and incubated for 1 h. After incubation, the plate was washed with PBST for 6 times and TMB (SurModics, TMBS-1000-0) was added for color development. According to the color development results, 2 M HCl was added to terminate the reaction, and the data were read at OD450 using a microplate reader (Molecular Devices, SpecterMax 190)."}, "[6]": {"biological_target": "T4, MusROR1-His (mouse ROR1 ECD AA30-406 with C-terminal His tag) (mouse, UniProt Q9Z139 30-406)", "T4 construct": "range 30-406; Expressed in HEK293; also called mouse ROR1 antigen protein; not shown: C-terminal His tag", "T4 sequence (Q9Z139 30-406 limits assumed)": "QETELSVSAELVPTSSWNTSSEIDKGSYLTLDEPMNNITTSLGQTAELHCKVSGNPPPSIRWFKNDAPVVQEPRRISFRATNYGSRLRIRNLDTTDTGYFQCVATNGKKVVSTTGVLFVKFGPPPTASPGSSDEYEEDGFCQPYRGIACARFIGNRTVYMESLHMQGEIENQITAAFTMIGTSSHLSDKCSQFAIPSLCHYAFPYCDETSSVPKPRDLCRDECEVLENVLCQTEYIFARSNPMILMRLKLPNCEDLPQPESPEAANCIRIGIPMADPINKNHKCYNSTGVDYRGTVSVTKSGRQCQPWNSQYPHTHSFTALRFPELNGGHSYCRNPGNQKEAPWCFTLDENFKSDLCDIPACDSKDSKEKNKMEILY", "assay": "ELISA, MusROR1-His coated at 2 µg/mL, goat anti-human Fc-HRP, OD450", "description": "as §3, with “MusROR1-His” for “huROR2-His”, “TMBS-1000-01)” for “TMBS-1000-0)”"}, "[7]": {"biological_target": "T1, huROR1-His (human ROR1 ECD AA30-406 …)", "assay": "Biacore T200 SPR; huROR1-His amine-coupled (~75 RU), antibody 4 and 20 nM as analyte, 1:1 Langmuir fit", "description": "Protein coupling: The huROR1-His protein produced in Example 1.2 was diluted to 5.6 μg/mL with NaAc buffer, pH 5.0, the flow rate was set to 10 μL/min, the chip activation time was set to the default value of 420 s with a mixture of 1-ethyl-(3-dimethylaminopropyl)carbodiimide (EDC) and N-hydroxysuccinimide (NHS), and the antigen protein huROR1-His was fixed to a level of about 75 RU using a coupling mode with a preset coupling amount, and the activated groups that were not bound to the test sample were blocked with ethanolamine.\nSample test conditions: PBS buffer (pH 7.4) containing 0.05% Tween-20 was used as the running buffer, and the running buffer was used as the control test sample. A series of antibody concentrations (4 nM, 20 nM) were set. During sample analysis, the flow rate was set to 30 μL/min, the binding time was 120 s, and the dissociation time was 360 s. After the dissociation was completed, 10 mM Gly-HCl (pH 2.0) was used for regeneration for 20 s to completely remove the antibody bound to the ligand.\nParameter fitting: The experiment was run in multiple cycles, with the response signal taking the analysis time as the horizontal axis and the response value as the vertical axis. After double reference subtraction, the obtained data were fitted by BiAcore T200 analysis software. The fitting model adopted was 1:1 Langmuir binding model, and Affinity metrics such as the binding dissociation constant were determined."}, "[8]": {"biological_target": "T1, huROR1-His (human ROR1 ECD AA30-406 …)", "assay": "ELISA, huROR1-His coated at 2 µg/mL, goat anti-human Fc-HRP, OD450", "description": "as §3, with “huROR1-His” for “huROR2-His”, “TMBS-1000-01)” for “TMBS-1000-0)”"}, "[9]": {"biological_target": "T2, human ROR1 on cells (full-length human …)", "assay": "flow cytometry (FACS) on huROR1-HEK293 cells, anti-human IgG-Fc secondary antibody, MFI", "description": "as §1, §2"}}}
{"binder": "B62-H2L3 (antibody, human IgG1, kappa) heavy: not shown light: DIQMTQSPSSLSASVGDRVTITCVTSIDIDDDVNWYQQKPGKAPKLLISAGNTLRPGVPSRFSGSGSGTDFTFTISSLQPEDIATYYCLQSDNLPYTFGGGTKLEIKRTVAAPSVFIFPPSDEQLKSGTASVVCLLNNFYPREAKVQWKVDNALQSGNSQESVTEQDSKDSTYSLSSTLTLSKADYEKHKVYACEVTHQGLSSPVTKSFNRGEC", "values": [{"measurement": "EC50", "setting": "[1]", "value": 6.3, "unit": "ng/mL"}]}
{"binder": "B62-H2L2 (antibody, human IgG1, kappa) heavy: not shown light: DIQLTQSPSSLSASVGDRVTIRCVTSIDIDDDVNWYQQKPGKAPKLLISAGNTLRPGVPSRFSGSGSGTDFTFTISSLQPEDIATYYCLQSDNLPYTFGGGTKLEIKRTVAAPSVFIFPPSDEQLKSGTASVVCLLNNFYPREAKVQWKVDNALQSGNSQESVTEQDSKDSTYSLSSTLTLSKADYEKHKVYACEVTHQGLSSPVTKSFNRGEC", "values": [{"measurement": "EC50", "setting": "[1]", "value": 6.27, "unit": "ng/mL"}]}
{"binder": "B62-H3L2 (antibody, human IgG1, kappa) heavy: not shown light: DIQLTQSPSSLSASVGDRVTIRCVTSIDIDDDVNWYQQKPGKAPKLLISAGNTLRPGVPSRFSGSGSGTDFTFTISSLQPEDIATYYCLQSDNLPYTFGGGTKLEIKRTVAAPSVFIFPPSDEQLKSGTASVVCLLNNFYPREAKVQWKVDNALQSGNSQESVTEQDSKDSTYSLSSTLTLSKADYEKHKVYACEVTHQGLSSPVTKSFNRGEC", "values": [{"measurement": "EC50", "setting": "[2]", "value": 6.59, "unit": "ng/mL"}]}
{"binder": "B62-H3L4 (antibody, human IgG1, kappa, V domains shown) VH: EVQLVESGGGLVQPGGSLRLSCAASGFTFSSYVMSWVRQAPGKGLEYVATINSNGGNTYYADSVKGRFTISRDNSKNTLYLQMGSLRAEDTAMYYCARDSLGLRRRDYAMDYWGQGTTVTVSS VL: DIQMTQSPSSLSASVGDRVTITCQTSIDIDDDVNWYQQKPGKAPKLLISAGNTLETGVPSRFSGSGSGTDFTFTISSLQPEDIATYYCLQSDNLPYTFGGGTKLEIKR", "values": [{"measurement": "EC50", "setting": "[2]", "value": 6.24, "unit": "ng/mL"}]}
{"binder": "B62-H2L4 (antibody, human IgG1, kappa, V domains shown) VH: EVQLVESGGGLVQPGGSLRLSCAASGFTFSSYVMSWVRQAPGKGLELVATINSNGGNTYYPDSVKGRFTISRDNAKNTLYLQMGSLRAEDTAMYYCARDSLGLRRRDYAMDYWGQGTTVTVSS VL: DIQMTQSPSSLSASVGDRVTITCQTSIDIDDDVNWYQQKPGKAPKLLISAGNTLETGVPSRFSGSGSGTDFTFTISSLQPEDIATYYCLQSDNLPYTFGGGTKLEIKR", "values": [{"measurement": "EC50", "setting": "[2]", "value": 8.48, "unit": "ng/mL"}]}
{"binder": "B62-H1L2 (antibody, human IgG1, kappa, V domains shown) VH: EVQLVESGGGLVQPGGSLRLSCAASGFTFSSYVMSWVRQTPGKRLELVATINSNGGNTYYPDSVKGRFTISRDNAKNTLYLQMSSLRAEDTAMYYCARDSLGLRRRDYAMDYWGQGTTVTVSS VL: DIQLTQSPSSLSASVGDRVTIRCVTSIDIDDDVNWYQQKPGKAPKLLISAGNTLRPGVPSRFSGSGSGTDFTFTISSLQPEDIATYYCLQSDNLPYTFGGGTKLEIKR", "values": [{"measurement": "EC50", "setting": "[1]", "value": 7.88, "unit": "ng/mL"}]}
{"binder": "B62-H1L1 (antibody, human IgG1, kappa, V domains shown) VH: EVQLVESGGGLVQPGGSLRLSCAASGFTFSSYVMSWVRQTPGKRLELVATINSNGGNTYYPDSVKGRFTISRDNAKNTLYLQMSSLRAEDTAMYYCARDSLGLRRRDYAMDYWGQGTTVTVSS VL: DIQLTQSPSSLSASVGDRVTIRCVTSIDIDDDVNWYQQKPGKAPKLLISAGNTLRPGVPSRFSSSGYGTDFTFTISSMQPEDIATYYCLQSDNLPYTFGGGTKLEIKR", "values": [{"measurement": "EC50", "setting": "[1]", "value": 7.1, "unit": "ng/mL"}]}
{"binder": "B62 (chimeric antibody) (antibody, human IgG1, kappa, V domains shown, ExpiCHO expression) VH: DVKLVESGGGLVQPGGSLKLSCAASGFTFSSYVMSWVRQTPDKRLELVATINSNGGNTYYPDSVKGRFTISRDNAKNTLYLQMSSLKSEDTAMYYCARDSLGLRRRDYAMDYWGQGTSVTVSS VL: DIVLTQSPASLSMAIGEKVTIRCVTSIDIDDDVNWYQQKPGKPPKLLISAGNTLRPGVPSRFSSSGYGTDFVFTIENMLSEDVADYYCLQSDNLPYTFGGGTKLEIKR", "values": [{"measurement": "EC50 (read off the curve)", "setting": "[3]", "value": "~6", "unit": "ng/mL"}, {"measurement": "Kd", "setting": "[4]", "value": 0.984, "unit": "nM"}, {"measurement": "koff", "setting": "[4]", "value": 0.000373, "unit": "s⁻¹"}, {"measurement": "kon", "setting": "[4]", "value": 379000, "unit": "M⁻¹ s⁻¹"}, {"measurement": "binding result", "setting": "[5]", "value": "no binding (tested: 1 µg/mL)"}, {"measurement": "EC50", "setting": "[1]", "value": 5.58, "unit": "ng/mL"}, {"measurement": "EC50", "setting": "[2]", "value": 5.46, "unit": "ng/mL"}, {"measurement": "EC50 (read off the curve)", "setting": "[6]", "value": "~4", "unit": "ng/mL"}, {"measurement": "Kd", "setting": "[7]", "value": 0.0639, "unit": "nM"}, {"measurement": "koff", "setting": "[7]", "value": "7.74e-05", "unit": "s⁻¹"}, {"measurement": "kon", "setting": "[7]", "value": "1.21e+06", "unit": "M⁻¹ s⁻¹"}, {"measurement": "t 1/2", "setting": "[7]", "value": 2.49, "unit": "h"}, {"measurement": "EC50", "setting": "[8]", "value": 8.03, "unit": "ng/mL"}, {"measurement": "EC50 (read off the curve)", "setting": "[9]", "value": "~70", "unit": "ng/mL"}]}
